Two molecules from PMC8961561, “PEPscan: A Broad Spectrum Approach for the Characterization of Protein-Binder Interactions?” (Biomolecules, 2022) can be followed below.

For one experiment, the target named is T1, TIMP-1 (UniProt P01033 24-207).
T1 construct: TIMP-1, UniProt P01033, full size 207
Kind of experiment: peptide or protein array; PEPscan: overlapping dodecapeptides (two amino acid shift) spanning the complete sequence of one partner on a cellulose membrane; saturated with 3% non-fat dry milk/3% BSA; incubated with the purified protein partner (4 mg/mL, 4 °C, overnight); antibody against that protein, HRP-conjugated secondary antibody, ECL. The conditions noted are these: both partners purified.

Experiment [1] has as its target T2, SLAM-Associated Protein (SAP) (UniProt O60880 1-128).
T2 construct: SAP, UniProt O60880, full size 128
T2 sequence (looked up): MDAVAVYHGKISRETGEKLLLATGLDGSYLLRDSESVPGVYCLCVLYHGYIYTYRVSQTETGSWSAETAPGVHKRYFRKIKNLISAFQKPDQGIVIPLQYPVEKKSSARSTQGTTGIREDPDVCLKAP
Described as above. The settings on record: both partners purified.

T1 sequence (P01033 24-207): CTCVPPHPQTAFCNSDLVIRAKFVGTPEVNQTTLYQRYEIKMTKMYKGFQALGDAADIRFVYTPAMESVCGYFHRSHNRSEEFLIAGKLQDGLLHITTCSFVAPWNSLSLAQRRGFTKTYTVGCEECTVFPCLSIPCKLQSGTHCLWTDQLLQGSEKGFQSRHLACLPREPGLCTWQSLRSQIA

B1: MMP1 fragment FREYNLHRVAAHELGHSL (peptide)
peptide: FREYNLHRVAAHELGHSL
notes: stretch of MMP-1; union of positive overlapping dodecapeptide spots 4:11–14; also called MMP1 4:11–14; source: spot synthesis on cellulose membrane
For the molecule B1, the binding result in the experiment with TIMP-1 was “binds”.

B2: Fyn fragment ALYDYEARTEDDLSFH (peptide)
peptide: ALYDYEARTEDDLSFH
notes: stretch of Fyn; union of positive overlapping dodecapeptide spots 2:14–16; also called FSYN-SH3 2:14–16; source: spot synthesis on cellulose membrane
For B2, the binding result in experiment [1] is recorded as “binds”.
